{"source": "patent US20250257130A1", "about": "(NONA BIOSCIENCES SUZHOU, published 2025)", "key": {"[1]": {"target": "T1, Human ROR1-ECD-his (Acro Biosystems RO1-H522y) (human, UniProt Q01973 30-406)", "T1 construct": "extracellular domain; bought protein; also called hROR1-ECD-his; hu-ROR1-ECD-his", "T1 sequence (Q01973 30-406)": "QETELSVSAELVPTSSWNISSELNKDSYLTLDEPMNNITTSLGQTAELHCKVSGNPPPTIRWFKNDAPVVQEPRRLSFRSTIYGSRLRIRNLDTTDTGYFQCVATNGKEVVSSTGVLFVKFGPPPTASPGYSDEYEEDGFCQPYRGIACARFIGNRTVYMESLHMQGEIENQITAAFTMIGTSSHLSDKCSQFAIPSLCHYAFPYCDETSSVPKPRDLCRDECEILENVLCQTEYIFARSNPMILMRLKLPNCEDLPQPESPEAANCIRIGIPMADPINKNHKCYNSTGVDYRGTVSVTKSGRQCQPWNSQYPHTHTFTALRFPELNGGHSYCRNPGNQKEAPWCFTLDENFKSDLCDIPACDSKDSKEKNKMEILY", "assay": "BLI in-tandem, row = 1st Ab; competitor (2nd Ab): PR000374", "source_text": "(§1) To determine if anti-ROR1 antibodies bind to human ROR1 on different or approximate binding epitopes, the ForteBio Octet® RED96e platform was used to perform epitope competition experiments on the anti-ROR1 antibodies. Human ROR1 protein (Acrobiosystems, #RO1-H522y) was biotinylated and then captured onto SA biosensors (ForteBio, #18-5020) to reach loading level of 0.3-0.4 nm. The in-tandem competition assay format was applied and it contains two association steps. Firstly, the antigen-loaded biosensors bind to each antibody (a.k.a, First antibody, 1st Ab) with a saturating concentration of 200 nM for 180 seconds to reach equilibrium and then secondly bind to the competing antibodies (a.k.a, Second antibody, 2nd Ab) of 200 nM for 180 seconds. The second binding signals were recorded as the 100% signal of each antibody when the first antibodies were replaced by kinetics buffer. All the binding data were analyzed using ForteBio Data Analysis 11.0 software. The inhibition rate is calculated by the following formula: […]"}, "[2]": {"target": "T1, Human ROR1-ECD-his (Acro Biosystems …)", "assay": "BLI in-tandem, row = 1st Ab; competitor (2nd Ab): PR007417", "source_text": "as §1"}, "[3]": {"target": "T1, Human ROR1-ECD-his (Acro Biosystems …)", "assay": "BLI in-tandem, row = 1st Ab; competitor (2nd Ab): PR005340", "source_text": "as §1"}, "[4]": {"target": "T2, human ROR1 on cells (HEK293T-hROR1, PANC-1, A549) (human, UniProt Q01973 30-937)", "T2 construct": "whole, on cells; one molecule for the three cell lines; also called huROR1; cell surface ROR1", "T2 sequence (Q01973 30-937)": "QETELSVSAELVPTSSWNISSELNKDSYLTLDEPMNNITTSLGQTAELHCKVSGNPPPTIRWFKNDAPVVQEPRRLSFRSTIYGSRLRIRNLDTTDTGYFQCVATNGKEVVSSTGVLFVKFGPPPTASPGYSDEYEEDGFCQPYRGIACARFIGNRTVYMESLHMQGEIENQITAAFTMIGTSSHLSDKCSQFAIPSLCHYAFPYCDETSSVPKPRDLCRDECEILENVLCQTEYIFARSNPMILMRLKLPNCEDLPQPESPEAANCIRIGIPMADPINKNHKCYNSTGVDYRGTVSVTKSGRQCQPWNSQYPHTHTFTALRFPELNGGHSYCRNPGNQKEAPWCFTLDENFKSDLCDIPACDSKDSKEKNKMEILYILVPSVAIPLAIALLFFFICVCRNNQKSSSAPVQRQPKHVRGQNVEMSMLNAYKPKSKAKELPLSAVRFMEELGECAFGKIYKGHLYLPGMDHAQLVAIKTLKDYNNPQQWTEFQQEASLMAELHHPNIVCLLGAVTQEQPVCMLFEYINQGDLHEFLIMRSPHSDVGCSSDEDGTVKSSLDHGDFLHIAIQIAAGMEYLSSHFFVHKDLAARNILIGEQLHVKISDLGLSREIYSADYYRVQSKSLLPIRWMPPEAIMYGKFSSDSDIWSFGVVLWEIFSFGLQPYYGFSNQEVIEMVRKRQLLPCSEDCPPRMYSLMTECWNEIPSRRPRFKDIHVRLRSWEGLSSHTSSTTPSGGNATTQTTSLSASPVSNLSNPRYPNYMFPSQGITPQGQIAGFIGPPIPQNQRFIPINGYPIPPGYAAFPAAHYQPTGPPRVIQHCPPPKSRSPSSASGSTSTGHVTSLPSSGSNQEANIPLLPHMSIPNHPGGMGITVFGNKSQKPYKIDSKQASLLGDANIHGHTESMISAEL", "assay": "flow cytometry on PANC-1 cells, MFI (FITC-A Median)", "protocol": "(§2) Binding of recombinant anti-ROR1 antibodies to human or cynomolgus ROR1-overexpressing cells was tested by flow cytometry. In this example, ROR1-expressing cell lines are HEK293T cell lines that had been transfected to express human ROR1 on the surface (HEK293T-hu ROR1, KYINNO BIOTECHNOLOGY CO., LTD, Catalog #KC-1018), CHO-K1 cell lines that had been transfected to express cynomolgus ROR1 (CHOK1-cyno ROR1), PANC-1 (ATCC, catalog: CRL-1469) or A549 cell lines (Shanghai Institute of Biochemistry and Cell Biology, Chinese Academy of Sciences).\n(§3) In brief, anti-ROR1 antibodies were serially diluted in staining buffer (PBS containing 2% FBS). Antibody solution was incubated with 1×10⁵ cells at 4° C. for 1 hour. […] After 1-hour incubation at 4° C., cells were washed twice with staining buffer and subjected to flow cytometry. PR000374 (Bench marker 1) and non-relevant IgG isotype control (Crownbio) were used as positive and negative controls, respectively."}, "[5]": {"target": "T1, Human ROR1-ECD-his (Acro Biosystems …)", "assay": "BLI in-tandem, row = 1st Ab; competitor (2nd Ab): PR005338", "source_text": "as §1"}, "[6]": {"target": "T3, cynomolgus ROR1 on CHO-K1-cynoROR1 cells (cynomolgus monkey, UniProt A0A2K5WTX7 30-937)", "T3 construct": "whole, on cells", "assay": "flow cytometry on CHOK1-cynoROR1 cells, MFI (APC-A Median) [top panel]", "protocol": "as §2, §3"}}}
{"binder": "PR000374 (antibody, human IgG1, kappa, V domains shown, positive control; also called Bench marker 1) VH: EVQLVESGGGLVQPGRSLRLSCTASGSDINDYPITWVRQAPGQGLEWIGFINSGGSTWYASWVKGRFTISRDDSKSIAYLQMNSLKTEDTAVYYCARGYSTYYRDFNIWGQGTLVTVSS VL: DIQMTQSPSSLSASVGDRVTINCQASQSIDSNLAWFQQKPGQPPKLLIYRASNLASGVPDRFSGSGSGTDFTLTISSLEAEDVATYYCLGGVGAVSYRTSFGGGTKVEIKR", "values": [{"measurement": "Inhibition (%)", "setting": "[1]", "result": 111, "unit": "%"}, {"measurement": "Inhibition (%)", "setting": "[2]", "result": -10.5, "unit": "%"}, {"measurement": "Inhibition (%)", "setting": "[3]", "result": -7.48, "unit": "%"}, {"measurement": "EC50 (read off the curve)", "setting": "[4]", "result": "~8", "unit": "nM"}, {"measurement": "Inhibition (%)", "setting": "[5]", "result": -7.76, "unit": "%"}, {"measurement": "EC50 (read off the curve)", "setting": "[6]", "result": "~5", "unit": "nM"}]}
